Legend:
AllW (YbbW) = molecular target: T1, AllW (YbbW) (Escherichia coli, UniProt P75712); experiment: cellular allantoin uptake by GC-MS; type: cell-based; settings: 1 mM allantoin, PBS with glucose, delta-allC cells; uptake lost in allW or allB deletion
T1 construct: native chromosomal AllW in delta-allC cells, stabilised by AllB; compared with allW and allB deletion strains; with Allantoinase

[1] = molecular target: T2, AllB (allantoinase; AllB_Zn, AllB_Mn) (Escherichia coli, UniProt P77671); experiment: absorbance of allantoate at […] nm; type: biochemical; settings: 0.1 mM ZnSO4, no GlxK, no glyoxylate, pH 8.0
T2 construct: full length; expressed in E. coli; tetrameric
T2 sequence (P77671 1-453): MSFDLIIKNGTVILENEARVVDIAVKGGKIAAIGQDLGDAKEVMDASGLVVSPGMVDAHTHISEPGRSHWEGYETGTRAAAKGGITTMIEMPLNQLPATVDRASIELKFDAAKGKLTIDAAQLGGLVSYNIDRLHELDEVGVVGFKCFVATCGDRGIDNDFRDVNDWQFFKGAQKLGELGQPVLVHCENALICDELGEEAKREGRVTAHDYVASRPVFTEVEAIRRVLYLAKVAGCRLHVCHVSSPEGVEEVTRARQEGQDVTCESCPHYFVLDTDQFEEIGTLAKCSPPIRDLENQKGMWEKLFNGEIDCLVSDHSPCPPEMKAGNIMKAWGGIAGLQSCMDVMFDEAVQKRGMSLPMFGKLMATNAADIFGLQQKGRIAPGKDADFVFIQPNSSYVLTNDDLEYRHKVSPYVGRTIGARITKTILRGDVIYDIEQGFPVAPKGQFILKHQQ

purified protein [2] = substrate: O=C(O)[C@H](O)CO; experiment: purified protein; type: biochemical, Escherichia coli; settings: 10 mM MgSO4, 1.2 mM ATP, pH 7.4, 37 °C
purified protein [3] = substrate: NC(=O)NC1NC(=O)NC1=O; experiment: purified protein; type: biochemical, Escherichia coli; settings: AllB_Mn, 0.2 mM MnSO4, no GlxK, 0.9 mM glyoxylate present, pH 8.0, 37 °C

T1 sequence (P75712 whole entry): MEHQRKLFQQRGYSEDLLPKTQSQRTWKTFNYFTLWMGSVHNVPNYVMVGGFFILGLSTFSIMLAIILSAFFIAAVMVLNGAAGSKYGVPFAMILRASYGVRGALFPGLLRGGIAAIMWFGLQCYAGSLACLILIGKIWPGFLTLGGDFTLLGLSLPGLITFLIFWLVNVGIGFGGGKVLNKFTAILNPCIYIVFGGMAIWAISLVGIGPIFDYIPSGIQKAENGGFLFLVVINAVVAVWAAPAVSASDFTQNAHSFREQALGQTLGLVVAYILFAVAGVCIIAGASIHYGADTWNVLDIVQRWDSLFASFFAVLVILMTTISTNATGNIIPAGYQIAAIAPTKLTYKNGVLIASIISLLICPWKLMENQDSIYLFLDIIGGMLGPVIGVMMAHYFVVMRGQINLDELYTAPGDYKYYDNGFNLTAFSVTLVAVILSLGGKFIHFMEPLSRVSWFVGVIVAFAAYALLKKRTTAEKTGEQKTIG

## NC(=O)NC1NC(=O)NC1=O (stereo not drawn) [allantoin]
AllW (YbbW)
  cellular allantoin uptake by GC-MS: no allantoin uptake was detected in either the AW12 (ΔallC–ΔallB) or the AW13 (ΔallC–ΔallW) mutant
[1]
  Km: > 15 mM

B1: GlxK (glycerate 2-kinase) (Escherichia coli K-12) (protein)
chain: MKIVIAPDSFKESLSAEKCCQAIKAGFSTLFPDANYICLPIADGGEGTVDAMVAATGGNIVTLEVCGPMGEKVNAFYGLTGDGKTAVIEMAAASGLMLVAPEKRNPLLASSFGTGELIRHALDNDIRHIILGIGGSATVDGGMGMAQALGVRFLDADGQALAANGGNLARVASIEMDECDPRLANCHIEVACDVDNPLVGARGAAAVFGPQKGATPEMVEELEQGLQNYARVLQQQTEINVCQMAGGGAAGGMGIAAAVFLNADIKPGIEIVLNAVNLAQAVQGAALVITGEGRIDSQTAGGKAPLGVASVAKQFNVPVIGIAGVLGDGVEVVHQYGIDAVFSILPRLAPLAEVLASGETNLFNSARNIACAIKIGQGIKN
notes: full length, N-terminal His6 tag, expressed in E. coli; GlxK-His 41 kDa
Purified protein [2]
  Km: 0.085 ± 0.009 mM
  Vmax: 4.6 ± 0.3 U/mg protein

B2: AllB (allantoinase; AllB_Zn, AllB_Mn) (Escherichia coli K-12) (protein)
chain: T2 sequence (P77671 1-453)
notes: full length; expressed in E. coli; tetrameric
Purified protein [3]
  Km: 5.8 ± 1.2 mM
  Vmax: 246 ± 32 U/mg protein

— PMC10163214, “E. coli allantoinase is activated by the downstream metabolic enzyme, glycerate kinase, and stabilizes the putative allantoin transporter by direct binding” (Scientific Reports, 2023)
